Test [1] deals with the two labeling variants of hHsp70 in the ATP-bound state (direct binding of JGF). The test is described as follows: FRET or BRET. On the technique in general: Bioluminescence resonance energy transfer reports proximity on the nanometre scale.
The target of test [2] is hHsp70 (human Hsp70A1), variant not told for the experiment (human) (UniProt P0DMV8). In words: SEC. On the technique in general: SEC sorts molecules by how far they enter the pores of the column.
The target of test [3] is Cy3-labeled hHsp70 (E315C/I427C or I427C/K559C; variant not told for the printed rate). In words: FRET or BRET.
Test [4] deals with hHsp70 NBD–SBDβ labeling variant E315C/I427C (human) (UniProt P0DMV8). The test is described as follows: FRET or BRET.
The target in test [5] is the two labeling variants of hHsp70 containing the T204A mutation. The test is described as follows: FRET or BRET.

Where “and” joins values, the source holds several entries; their conditions need not be identical. Equal values may be shown once.

As for “J+G/F-rich segment (JGF) of Hdj1, residues 1–141 (from UniProt P25685 1-141) (domain or fragment)”, the apparent rate constant of direct binding in test [1] is 0.7 s⁻¹ and 1.6 s⁻¹.
Consider “Hdj1, human type II Hsp40 homolog, full-length (from UniProt P25685 1-340) (natural protein)”, for which, in test [2], the stoichiometry N (hHsp70 molecules per Hdj1 dimer) is 2. For the same substance, in test [3], the apparent rate constant of the fast binding phase turned out to be 1.2 s⁻¹. In test [4], this substance yielded a kon of 350000 M⁻¹ s⁻¹. In addition, in test [5], the rate constant of direct binding was 2.5 s⁻¹ and 1.5 s⁻¹.

Usually kon stands for the rate constant with which the complex forms. A higher kon goes with faster complex formation.

The record behind these values is PMC7148561.
